The results in this text go back to paper PMC4543561.

Substrate in data set [1]: C[C@H](CCC(=O)O)[C@H]1CC[C@H]2[C@@H]3CC[C@@H]4CC(=O)CC[C@]4(C)[C@H]3C[C@H](O)[C@]12C
Briefly: purified protein. As to conditions: reduction, 10 mM MOPS pH 7.0, 37 °C.

Substrate in data set [2]: C[C@H](CCC(=O)O)[C@H]1CC[C@H]2[C@@H]3CC[C@@H]4C[C@H](O)CC[C@]4(C)[C@H]3C[C@H](O)[C@]12C
In words: purified protein. As to conditions: oxidation, 10 mM MOPS pH 7.0, 37 °C.

B1: Elen_0198 (Eggerthella lenta DSM 2243) (protein)
chain: MYDDLKGKTVVVTGSSKGLGAAMARRFGAEGMNVVANYRSDEEGARETVRAIEEAGGAAAAVQADVSKNECVDALFDAAMFSFGGVDIWVNNAGIEVASPSDRKSIEEWQRVIDVNLTGVFAGCRRAIDHFLDRKMPGVIINLSSVHEIIPWPHFADYAASKAGVGMLTKTLALEYADRGIRVNAIAPGAMNTPINAEKFADPEARAATERLIPMGYVGAPEDVAAAAAWLASDQASYVTGTTLFVDGGMTLYPGFQFGQG
For B1, in “purified protein [1]” (cofactor NADH), the Km was 2660 ± 539 µM and the kcat was 9.73 ± 0.583 s⁻¹.

B2: Elen_0690 (Eggerthella lenta DSM 2243) (protein)
chain: MGIYVITGATSGIGAKTAEILRERGHEVVNIDLNGGDINANLATKEGRAGAIAELHERFPEGIDAMICNAGVSGGKVPISLIISLNYFGATEMARGVFDLLEKKGGSCVVTSSNSIAQGAARMDVAGMLNNHADEDRILELVKDVDPAIGHVYYASTKYALARWVRRMSPDWGSRGVRLNAIAPGNVRTAMTANMLPEQRAAMEAIPVPTHFGEEPLMDPVEIANAMAFIASPEASGINGVVLFVDGGTDALLNSEKVY
As to B2, in the data set “purified protein [2]” (cofactor NAD+), the Km came to 1280 ± 88 µM and the kcat amounted to 4.85 ± 0.117 s⁻¹.

B3: Rumgna_02133 (Mediterraneibacter gnavus ATCC 29149) (protein)
chain: MFMMLKNKVAIVTGGTRGIGFAVVKKFIENGAAVSLWGSRQETVDQALEQLKELYPDAKISGKYPSLKDTAQVTAMINQVKEEFGAVDILVNNAGISQSTSFYNYQPEEFQKIVDLNVTAVFNCSQAAAKIMKEQGGGVILNTSSMVSIYGQPSGCGYPASKFAVNGLTKSLARELGCDNIRVNAVAPGITRTDMVAALPEAVIKPLIATIPLGRVGEPEDIANAFLFLASDMASYVTGEILSVDGAARS
For the protein B3, in “purified protein [2]” (cofactor NADP+), the Km worked out at 369 ± 30 µM and the kcat stood at 1.66 ± 0.0333 s⁻¹.

B4: Elen_1325 (Eggerthella lenta DSM 2243) (protein)
chain: MSEARHNPVLAGQTAVITGGASGIGKSIVQRFLEAGASCLAADLNEEALAALKQELAEYGDKLDVVKVDVSNRDDVEGMVDRAVQTFGQMDIIVNNAGIMDNLLPIAEMDDDVWERLMKVNLNSVMYGTRKAVRYFMERGEGGVIINTASLSGLCAGRGGCAYTASKFAVVGLTKNVAFMYADTGIRCNAICPGNTQTNIGVGMRQPSERGMAKATTGYAGATRSGTPEEISAAAAFLASDQAGFINGETLTIDGGWSAY
Regarding B4, in the data set “purified protein [1]” (cofactor NADH), the Km is listed as 2630 ± 365 µM and the kcat amounted to 29.2 ± 1.1 s⁻¹.

B5: Rumgna_00694 (Mediterraneibacter gnavus ATCC 29149) (protein)
chain: MNFGGFIMGRFDEKIMLVTGATSGIGRAVAIRAAKEGATVVAVGRNEERGAAVVAAMEEAGGKGEFMKCDVSNKDAVKALFAEIQEKYGKLDVAVNNAGIVGASKTVEELEDDDWFQVIDANLNSCFFCCREEVKLMQPSGGAIVNVSSVAGMRGFPSAAAYVASKHAVSGLTKAVAVDYATKGITCNAICPAGTDTPLTERSSADIKTRMAEIAAQGKDPMEWLKNSMLSGKTETLQKKNATPEEQAATILYFASDEARHITGSIVASDGGFTTY
B5: in the data set “purified protein [1]” (cofactor NADPH), the Km amounted to 56.0 ± 5.6 µM and the kcat amounted to 157 ± 4.53 s⁻¹.

In general, Km refers to the concentration of substrate that gives half-maximal velocity. In general, kcat refers to the maximal rate divided by the concentration of active sites.
